Measured values: patent US20220112276A1 (Janssen / Centocor, published 2022)

Assays:
[1] = target: T1, human pIgR extracellular domain (ECD) (human, UniProt P01833 19-638); assay: SPR, VHH captured by anti-Fc, ECD analyte
T1 construct: Bought from R&D Systems (Cat 2717-PG-050); also called hpIgR ECD
Summary of the method: (§1)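 Single-cycle kinetics: ECD analyte from 30 nM, 3-fold series, low to high, with 30 min off-rate monitoring, over VHH captured at 0.5 ug/ml (~200-300 RU). HBSP plus 100 ug/ml BSA at 30 μL/min. Reference cell and buffer blank subtracted; global 1:1 Langmuir fit gave kon, koff, KD.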

[2] = target: T2, cynomolgus monkey pIgR extracellular domain (cynomolgus monkey, UniProt A0A2K5WMU9 19-638); assay: SPR, VHH captured by anti-Fc, ECD analyte
T2 construct: extracellular domain
Summary of the method: as §1

T1 sequence (P01833 other isoform, or with tags, fused parts or gaps): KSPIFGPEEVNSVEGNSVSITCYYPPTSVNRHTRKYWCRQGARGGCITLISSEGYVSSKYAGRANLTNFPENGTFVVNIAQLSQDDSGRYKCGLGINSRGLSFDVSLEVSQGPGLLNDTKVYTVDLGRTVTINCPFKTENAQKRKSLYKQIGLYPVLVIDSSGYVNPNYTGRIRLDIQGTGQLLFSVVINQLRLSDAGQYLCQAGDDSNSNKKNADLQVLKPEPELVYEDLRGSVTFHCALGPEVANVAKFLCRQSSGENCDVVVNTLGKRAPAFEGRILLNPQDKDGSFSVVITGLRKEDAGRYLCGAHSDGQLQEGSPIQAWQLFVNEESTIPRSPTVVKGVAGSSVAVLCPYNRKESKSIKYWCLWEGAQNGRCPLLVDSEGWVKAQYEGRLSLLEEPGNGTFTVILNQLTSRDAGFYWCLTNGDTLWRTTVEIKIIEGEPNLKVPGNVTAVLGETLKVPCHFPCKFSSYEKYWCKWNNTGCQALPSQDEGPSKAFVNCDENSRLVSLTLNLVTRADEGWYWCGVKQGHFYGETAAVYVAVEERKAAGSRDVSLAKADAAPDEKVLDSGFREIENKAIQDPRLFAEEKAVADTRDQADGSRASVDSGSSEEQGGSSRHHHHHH
T2 sequence (A0A2K5WMU9 entry or part of it): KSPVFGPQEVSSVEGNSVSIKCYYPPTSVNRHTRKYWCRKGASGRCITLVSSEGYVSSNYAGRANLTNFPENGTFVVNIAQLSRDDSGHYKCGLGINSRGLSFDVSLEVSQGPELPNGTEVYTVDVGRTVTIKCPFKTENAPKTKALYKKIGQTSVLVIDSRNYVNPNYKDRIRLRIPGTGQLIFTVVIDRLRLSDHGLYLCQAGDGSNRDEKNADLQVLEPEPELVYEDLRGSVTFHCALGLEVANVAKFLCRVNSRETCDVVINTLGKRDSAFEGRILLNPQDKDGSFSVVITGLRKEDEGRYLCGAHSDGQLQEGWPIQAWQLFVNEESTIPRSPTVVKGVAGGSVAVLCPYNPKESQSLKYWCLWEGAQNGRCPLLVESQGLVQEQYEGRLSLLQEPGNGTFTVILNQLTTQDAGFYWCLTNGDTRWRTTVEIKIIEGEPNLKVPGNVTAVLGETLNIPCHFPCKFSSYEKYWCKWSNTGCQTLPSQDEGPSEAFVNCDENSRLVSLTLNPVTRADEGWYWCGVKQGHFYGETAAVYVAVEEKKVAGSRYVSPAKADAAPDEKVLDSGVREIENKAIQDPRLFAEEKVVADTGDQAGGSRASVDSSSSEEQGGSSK

| Binder | Kd [1] [nM] | Kd [2] [nM] |
| --- | --- | --- |
| 01B01R3 VHH Mono-Fc (Fc fusion) QVQLVESGGGLVQAGGSLRLSCAASGRTFSSYAMGWFRQAPGKEREFVAVISWSGGSTYYADSVKGRFTISRDNAKNTVYLQMNSLKPEDTAVYYCASGEQPGSNRPYIPEQPIEFMPTDYPSWYDYWGQGTLVTVSSSPAPELLGGPSVFLFPPKPKDTLMISRTPEVTCVVVDVSHEDPEVKFNWYVDGVEVHNAKTKPREEQYNSTYRVVSVLTVLHQDWLNGKEYKCKVSNKALPAPIEKTISKAKGQPREPQVYTKPPSREEMTKNQVSLSCLVKGFYPSDIAVEWESNGQPENNYKTTVPVLDSDGSFRLASYLTVDKSRWQQGNVFSCSVMHEALHNHYTQKSLSLSPGK | 1.38 | 3.78 |
| 01D02R3LS VHH Mono-Fc (Fc fusion) QVQLVESGGGLVQAGDSLTLSCAASGRSVGFDTYGMAWFRQAPGKEREFVASIAYNGETTSYADSVQGRFTVTRENAKNTIALRMNGLKPDDTAVYYCAAAQYYLTGTSFPAKFWGQGTLVTVSSSPAPELLGGPSVFLFPPKPKDTLMISRTPEVTCVVVDVSHEDPEVKFNWYVDGVEVHNAKTKPREEQYNSTYRVVSVLTVLHQDWLNGKEYKCKVSNKALPAPIEKTISKAKGQPREPQVYTKPPSREEMTKNQVSLSCLVKGFYPSDIAVEWESNGQPENNYKTTVPVLDSDGSFRLASYLTVDKSRWQQGNVFSCSVMHEALHNHYTQKSLSLSPGK | 0.809 | 0.885 |
| 01C02R3 VHH Mono-Fc (Fc fusion) QVQLVESGGGLVQAGGSLRLSCAASGLSFSSYTMGWFRQVPGKERELISAIHWSGGPTFYSNSVKGRFTISRDNAKDTVYLQMNSLKPEDTAVYYCTAEPVGSMISPDWTYWGQGTLVTVSSSPAPELLGGPSVFLFPPKPKDTLMISRTPEVTCVVVDVSHEDPEVKFNWYVDGVEVHNAKTKPREEQYNSTYRVVSVLTVLHQDWLNGKEYKCKVSNKALPAPIEKTISKAKGQPREPQVYTKPPSREEMTKNQVSLSCLVKGFYPSDIAVEWESNGQPENNYKTTVPVLDSDGSFRLASYLTVDKSRWQQGNVFSCSVMHEALHNHYTQKSLSLSPGK | 1.23 | 8.43 |
| 03D01R3 VHH Mono-Fc (Fc fusion) EVQLVESGGGLVQPGGSLRLSCAASGFTFRTYYMGWFRQAPGKEREFVGVTRSSDDVTYYADSVKGRFTISRDNAKNTVYLQMSRLKPEDTAVYYCAAKPVPITRYSFPQIGEEYDYWGQGTLVTVSSSPAPELLGGPSVFLFPPKPKDTLMISRTPEVTCVVVDVSHEDPEVKFNWYVDGVEVHNAKTKPREEQYNSTYRVVSVLTVLHQDWLNGKEYKCKVSNKALPAPIEKTISKAKGQPREPQVYTKPPSREEMTKNQVSLSCLVKGFYPSDIAVEWESNGQPENNYKTTVPVLDSDGSFRLASYLTVDKSRWQQGNVFSCSVMHEALHNHYTQKSLSLSPGK | 2.26 | 5.51 |
| 01C09R3 VHH Mono-Fc (Fc fusion) EVQLVESGGGLVQAGGSLRLSCAASGFTFRTYYMGWFRQAPGKEREFVGVTRSSDDVTYYADSVKGRFTISRDNAKNTVYLQMSRLKPEDTAVYYCAAKPVPITRYSFPQIGEEYDYWGQGTLVTVSSSPAPELLGGPSVFLFPPKPKDTLMISRTPEVTCVVVDVSHEDPEVKFNWYVDGVEVHNAKTKPREEQYNSTYRVVSVLTVLHQDWLNGKEYKCKVSNKALPAPIEKTISKAKGQPREPQVYTKPPSREEMTKNQVSLSCLVKGFYPSDIAVEWESNGQPENNYKTTVPVLDSDGSFRLASYLTVDKSRWQQGNVFSCSVMHEALHNHYTQKSLSLSPGK | 2.18 | 5.73 |
| 01D01R3 VHH Mono-Fc (Fc fusion) EVQLVESGGGLVQAGGSLRLSCAASGRTFSVYGMGWFRQAPGQERAFVAAISWSDGSTYYADSVKGRFTISRDNAKNTMYLQMNSLKPEDTAVYFCAADLTGWGLDADVSEYDYWGQGTQVTVSSSPAPELLGGPSVFLFPPKPKDTLMISRTPEVTCVVVDVSHEDPEVKFNWYVDGVEVHNAKTKPREEQYNSTYRVVSVLTVLHQDWLNGKEYKCKVSNKALPAPIEKTISKAKGQPREPQVYTKPPSREEMTKNQVSLSCLVKGFYPSDIAVEWESNGQPENNYKTTVPVLDSDGSFRLASYLTVDKSRWQQGNVFSCSVMHEALHNHYTQKSLSLSPGK | 5.96 | 375 |
| 01E03R2 VHH Mono-Fc (Fc fusion) EVQLVESGGGLVQAGGSLRLSCAASGRTFSVYGMGWFRQAPGQERAFVAAISWSDGSTYYADSVKGRFTISRDNAKNTMYLQMNSLKPEDTAVYFCAADLTGWGLDADVSEYDYWGQGTLVTVSSSPAPELLGGPSVFLFPPKPKDTLMISRTPEVTCVVVDVSHEDPEVKFNWYVDGVEVHNAKTKPREEQYNSTYRVVSVLTVLHQDWLNGKEYKCKVSNKALPAPIEKTISKAKGQPREPQVYTKPPSREEMTKNQVSLSCLVKGFYPSDIAVEWESNGQPENNYKTTVPVLDSDGSFRLASYLTVDKSRWQQGNVFSCSVMHEALHNHYTQKSLSLSPGK | 6.1 | 373 |

Next, values leading:

| Kd [1] [nM] | Kd [2] [nM] | Binder |
| --- | --- | --- |
| 1.18 | 40.8 | 01G07R3 VHH Mono-Fc (Fc fusion) QVQLVESGGGLVQAGDSLRLSCAASGRTLSFDTYAMGWFRQAPGKEREFVASIDWSGGTTYYADSVKGRFTVTRDNAKNTVTLRMNSLKPADTAVYYCAAAQYYRSGTSFPANYWGQGTLVTVSSSPAPELLGGPSVFLFPPKPKDTLMISRTPEVTCVVVDVSHEDPEVKFNWYVDGVEVHNAKTKPREEQYNSTYRVVSVLTVLHQDWLNGKEYKCKVSNKALPAPIEKTISKAKGQPREPQVYTKPPSREEMTKNQVSLSCLVKGFYPSDIAVEWESNGQPENNYKTTVPVLDSDGSFRLASYLTVDKSRWQQGNVFSCSVMHEALHNHYTQKSLSLSPGK |
| 2.46 | 9.51 | 02B09R3 VHH Mono-Fc (Fc fusion) EVQLVESGGGLVQPGGSLRLSCAASGFTFRTYYMGWFRRAPGKEREFVGVTRSSDDVTYYADSVKGRFTISRDNAKDTVYLQMSRLKPEDTAVYYCAAKPVPITRYSFPQIGEEYDYWGQGTLVTVSSSPAPELLGGPSVFLFPPKPKDTLMISRTPEVTCVVVDVSHEDPEVKFNWYVDGVEVHNAKTKPREEQYNSTYRVVSVLTVLHQDWLNGKEYKCKVSNKALPAPIEKTISKAKGQPREPQVYTKPPSREEMTKNQVSLSCLVKGFYPSDIAVEWESNGQPENNYKTTVPVLDSDGSFRLASYLTVDKSRWQQGNVFSCSVMHEALHNHYTQKSLSLSPGK |
| 6.22 | 399 | 01G04R3 VHH Mono-Fc (Fc fusion) QVQLVESGGGLVQAGGSLRLSCAASGRTFSVYGMGWFRQAPGQERAFVAAISWSDGSTYYADSVKGRFTISRDNAKNTMYLQMNSLKPEDTAVYFCAADLTGWGLDADVSEYDYWGQGTQVTVSSSPAPELLGGPSVFLFPPKPKDTLMISRTPEVTCVVVDVSHEDPEVKFNWYVDGVEVHNAKTKPREEQYNSTYRVVSVLTVLHQDWLNGKEYKCKVSNKALPAPIEKTISKAKGQPREPQVYTKPPSREEMTKNQVSLSCLVKGFYPSDIAVEWESNGQPENNYKTTVPVLDSDGSFRLASYLTVDKSRWQQGNVFSCSVMHEALHNHYTQKSLSLSPGK |
| 0.858 | 101 | 02B11R3 VHH Mono-Fc (Fc fusion) EVQLVESGGGLVQAGGSLRLSCAASGRTFSPYGMGWFRQTPGKERAFVAAVDWNDGSTYYSDSVKGRFTISRDNAKNTVYLQMNSLKSEDTAVYYCAADLTGWGLDADVSEYDYWGQGTLVTVSSSPAPELLGGPSVFLFPPKPKDTLMISRTPEVTCVVVDVSHEDPEVKFNWYVDGVEVHNAKTKPREEQYNSTYRVVSVLTVLHQDWLNGKEYKCKVSNKALPAPIEKTISKAKGQPREPQVYTKPPSREEMTKNQVSLSCLVKGFYPSDIAVEWESNGQPENNYKTTVPVLDSDGSFRLASYLTVDKSRWQQGNVFSCSVMHEALHNHYTQKSLSLSPGK |
